Assay results reported in patent US20200316121A1 (published 2020).
Numbering of substitutions follows the chain as printed. One block for each binder: values may come before it.

Assays:
Test in all cases: activation reporter or marker
[1] = target: T1, p53 wild type (Y220) peptide on HLA-DRB1*04:01:01 (human)
T1 peptide: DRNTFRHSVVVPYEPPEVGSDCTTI

[2] = target: T2, p53 Y220C peptide on HLA-DRB1*04:01:01 (human)
T2 peptide: RNTFRHSVVVPCE

[3] = target: T3, p53 R248W peptide on HLA-A*68:01 (human)
T3 peptide: SSCMGGMNWR

B1: 4259-F6-TCR (TCR, V domains shown)
Valpha: QKEVEQNSGPLSVPEGAIASLNCTYSDRGSQSFFWYRQYSGKSPELIMFIYSNGDKEDGRFTAQLNKASQYVSLLIRDSQPSDSATYLCAWNSGGSNYKLTFGKGTLLTVNP
Vbeta: NAGVTQTPKFRVLKTGQSMTLLCAQDMNHEYMYWYRQDPGMGLRLIHYSVGEGTTAKGEVPDGYNVSRLKKQNFLLGLESAAPSQTSVYFCASSYSQAWGQPQHFGDGTRLSIL
binding result [1]: no recognition
binding result [2]: recognises

B2: 4266-TCR2 (TCR, V domains shown)
Valpha: GQNIDQPTEMTATEGAIVQINCTYQTSGFNGLFWYQQHAGEAPTFLSYNVLDGLEEKGRFSSFLSRSKGYSYLLLKELQMKDSASYLCAVYTGGFKTIFGAGTRLFVKA
Vbeta: EAGVAQSPRYKIIEKRQSVAFWCNPISGHATLYWYQQILGQGPKLLIQFQNNGVVDDSQLPKDRFSAERLKGVDSTLKIQPAKLEDSAVYLCASNLGGGSTDTQYFGPGTRLTVL
binding result [3]: recognises

The remaining lines, values ahead:

binding result [3]: recognises
B3: 4266-TCR4 (TCR, V domains shown)
Valpha: GQNIDQPTEMTATEGAIVQINCTYQTSGFNGLFWYQQHAGEAPTFLSYNVLDGLEEKGRFSSFLSRSKGYSYLLLKELQMKDSASYLCAVYPGGSQGNLIFGKGTKLSVKP
Vbeta: B2 Vbeta with N95S, G98T

binding result [3]: recognises
B4: 4266-TCR3 (TCR, V domains shown)
Valpha: B3 Valpha with V90F, P92Y
Vbeta: GAGVSQSPRYKVAKRGQDVALRCDPISGHVSLFWYQQALGQGPEFLTYFQNEAQLDKSGLPSDRFFAERPEGSVSTLKIQRTQQEDSAVYLCASSFGSGSTDTQYFGPGTRLTVL
